Assay results taken from patent US20250064929A1 (UPSTREAM BIO, published 2025).

How the values were obtained:
[1] = biological target: T1, human TSLP receptor (TSLP-R) (human, UniProt Q9HC73 23-371); experiment: cell-based or functional assay
T1 sequence (looked up): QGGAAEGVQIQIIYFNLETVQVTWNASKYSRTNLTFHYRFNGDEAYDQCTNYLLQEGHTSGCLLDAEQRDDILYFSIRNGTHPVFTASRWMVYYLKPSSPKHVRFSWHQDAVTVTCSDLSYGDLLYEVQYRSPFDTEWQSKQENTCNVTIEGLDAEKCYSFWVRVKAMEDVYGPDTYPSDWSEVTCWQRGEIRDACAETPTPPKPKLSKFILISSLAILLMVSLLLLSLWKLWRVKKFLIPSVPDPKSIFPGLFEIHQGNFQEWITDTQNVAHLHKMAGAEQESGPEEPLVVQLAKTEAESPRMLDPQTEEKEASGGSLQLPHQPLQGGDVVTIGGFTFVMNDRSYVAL

[2] = biological target: T1, human TSLP receptor (TSLP-R); experiment: cell-based or functional assay; remark: listed apart in the source

B1: TRAB-1 antibody (anti-TSLP-R antibody) (antibody, human IgG1, kappa, V domains shown)
VH: EVQLLESGGGLVQPGGSLRLSCAASGFTFRSSAMHWVRQAPGKGLKWVSSVSGSGAGTYYADSVKGRFTISRDNPKNTLYLQMNSLRAEDTAVYYCVKEGGSRGFDYWGQGTLVTVSS
VL: DIQMTQSPSSLSASVGDRVTITCRASQDISNYLAWFQQKPGKAPKSLIYTASSLQSGVPSKFSGSGSGTDFTLTISSLQPEDFATYYCQQYNLYPPTFGQGTKVEIKR
In the case of B1, the “IC50 (ng/mL), cell proliferation of Ba/F3 cells transfected with human TSLP-R/IL-7Rα” value [1] is reported as 90.7 ng/mL and the “IC50 (ng/mL), CCL17 production in dendritic cells” value [2] is reported as 16.1 ng/mL.
